According to article PMC10592209 (Neuron, 2023):

Molecular target: the molecule itself
Assay: native gel or EMSA

Protein	stoichiometry N
acid-gated ASIC1 channel (natural protein, mouse (endogenous in brain), UniProt Q6NXK8 1-526, looked up) MELKTEEEEVGGVQPVSIQAFASSSTLHGLAHIFSYERLSLKRALWALCFLGSLAVLLCVCTERVQYYFCYHHVTKLDEVAASQLTFPAVTLCNLNEFRFSQVSKNDLYHAGELLALLNNRYEIPDTQMADEKQLEILQDKANFRSFKPKPFNMREFYDRAGHDIRDMLLSCHFRGEACSAEDFKVVFTRYGKCYTFNSGQDGRPRLKTMKGGTGNGLEIMLDIQQDEYLPVWGETDETSFEAGIKVQIHSQDEPPFIDQLGFGVAPGFQTFVSCQEQRLIYLPSPWGTCNAVTMDSDFFDSYSITACRIDCETRYLVENCNCRMVHMPGDAPYCTPEQYKECADPALDFLVEKDQEYCVCEMPCNLTRYGKELSMVKIPSKASAKYLAKKFNKSEQYIGENILVLDIFFEVLNYETIEQKKAYEIAGLLGDIGGQMGLFIGASILTVLELFDYAYEVIKHRLCRRGKCQKEAKRNSADKGVALSLDDVKRHNPCESLRGHPAGMTYAANILPHHPARGTFEDFTC	3
voltage-gated HCN1 channel (natural protein, mouse (endogenous in brain), UniProt O88704 1-910, looked up) MEGGGKPNSASNSRDDGNSVFPSKAPATGPVAADKRLGTPPGGGAAGKEHGNSVCFKVDGGGGEEPAGSFEDAEGPRRQYGFMQRQFTSMLQPGVNKFSLRMFGSQKAVEKEQERVKTAGFWIIHPYSDFRFYWDLIMLIMMVGNLVIIPVGITFFTEQTTTPWIIFNVASDTVFLLDLIMNFRTGTVNEDSSEIILDPKVIKMNYLKSWFVVDFISSIPVDYIFLIVEKGMDSEVYKTARALRIVRFTKILSLLRLLRLSRLIRYIHQWEEIFHMTYDLASAVVRIFNLIGMMLLLCHWDGCLQFLVPLLQDFPPDCWVSLNEMVNDSWGKQYSYALFKAMSHMLCIGYGAQAPVSMSDLWITMLSMIVGATCYAMFVGHATALIQSLDSSRRQYQEKYKQVEQYMSFHKLPADMRQKIHDYYEHRYQGKIFDEENILSELNDPLREEIVNFNCRKLVATMPLFANADPNFVTAMLSKLRFEVFQPGDYIIREGAVGKKMYFIQHGVAGVITKSSKEMKLTDGSYFGEICLLTKGRRTASVRADTYCRLYSLSVDNFNEVLEEYPMMRRAFETVAIDRLDRIGKKNSILLQKFQKDLNTGVFNNQENEILKQIVKHDREMVQAIPPINYPQMTALNCTSSTTTPTSRMRTQSPPVYTATSLSHSNLHSPSPSTQTPQPSAILSPCSYTTAVCSPPIQSPLATRTFHYASPTASQLSLMQQPQQQLPQSQVQQTQTQTQQQQQQQQQQQQQQQQQQQQQQQQQQQQQQQQQQQQQPQTPGSSTPKNEVHKSTQALHNTNLTKEVRPLSASQPSLPHEVSTLISRPHPTVGESLASIPQPVAAVHSTGLQAGSRSTVPQRVTLFRQMSSGAIPPNRGVPPAPPPPAAVQRESPSVLNTDPDAEKPRFASNL	4
